Experimental data as given in patent US20230190943A1, “ALGINIC ACID DERIVATIVE BONDED TO NONSTEROIDAL ANTI-INFLAMMATORY COMPOUND” (MOCHIDA PHARMACEUTICAL CO., LTD., priority 2018, published 2023).

Tests used:
[1] = Release test of free diclofenac, felbinac, ketoprofen or naproxen in sodium phosphate buffer (Example 23); format: physicochemical
Description: (§1) (set temperature of air conditioner). After confirming that no gel was formed, this solution was dispensed. Immediately after the dissolution, the amount of free diclofenac present in each solution was measured by LC-MS/MS as an initial state (day 0 of storage). Also, the other dispensed solutions were incubated at 37° C. for 1, 3, and 7 days, and then the amount of free diclofenac was measured. […] The MS conditions are as follows. • Ionization mode: ESI-negative • Ion source temperature: 300 degrees • Capillary voltage: -4000 V

[2] = Release test of free diclofenac from conjugates in 20 mM sodium phosphate buffer, 37°C (Example 11); format: physicochemical; conditions: for Release Rate in Release Test at pH 5.3: pH 5.3, 37°C; for Release Rate in Release Test at pH 5.3 / Release Rate in Release Test at pH 7.0: free diclofenac; for Release Rate in Release Test at pH 7.0: pH 7.0, 37°C
Description: as §1

[3] = pH 5.3, day 1, free drug (diclofenac, felbinac, ketoprofen or naproxen)
[4] = pH 5.3, day 3, free drug (diclofenac, felbinac, ketoprofen or naproxen)
[5] = pH 5.3, day 7, free drug (diclofenac, felbinac, ketoprofen or naproxen)
[6] = pH 7.0, day 1, free drug (diclofenac, felbinac, ketoprofen or naproxen)
[7] = pH 7.0, day 3, free drug (diclofenac, felbinac, ketoprofen or naproxen)
[8] = pH 7.0, day 7, free drug (diclofenac, felbinac, ketoprofen or naproxen)

| Substance | Release Rate in Release Test at pH 5.3 [1, 3] [%] | Release Rate in Release Test at pH 5.3 [1, 4] [%] | Release Rate in Release Test at pH 5.3 [1, 5] [%] | Release Rate in Release Test at pH 7.0 [1, 6] [%] | Release Rate in Release Test at pH 7.0 [1, 7] [%] | Release Rate in Release Test at pH 7.0 [1, 8] [%] | Release Rate in Release Test at pH 5.3 ([2]; Day 1, 0.1% w/w conjugate) [%] | Release Rate in Release Test at pH 5.3 ([2]; Day 3, 0.1% w/w conjugate) [%] | Release Rate in Release Test at pH 5.3 ([2]; Day 7, 0.1% w/w conjugate) [%] | Release behaviour in the release test at pH 7.0 (in words) [2] | Release Rate in Release Test at pH 7.0 ([2]; Day 1, 0.1% w/w conjugate) [%] | Release Rate in Release Test at pH 7.0 ([2]; Day 3, 0.1% w/w conjugate) [%] | Release Rate in Release Test at pH 7.0 ([2]; Day 7, 0.1% w/w conjugate) [%] |
| --- | --- | --- | --- | --- | --- | --- | --- | --- | --- | --- | --- | --- | --- |
| Diclofenac-(2-Amino-N-(2-Hydroxypropyl)Acetamide)-Alginic Acid Derivative [Compound 72a] | 0.0 | 0.1 | 0.2 | 0.3 | 1.0 | 2.2 | – | – | – | – | – | – | – |
| Diclofenac-(2-Aminoethanol)-Alginic Acid Derivative [Compound 5d] | – | – | – | – | – | – | 0.0 | 0.1 | 0.4 | stably released | 0.2 | 2.4 | 5.1 |
| Diclofenac-(2-Amino-N-(2-Hydroxyethyl)Acetamide)-Alginic Acid Derivative [Compound 53a] | 0.1 | 0.4 | 0.8 | 0.9 | 3.7 | 10.0 | – | – | – | – | – | – | – |
| Diclofenac-(2-Amino-N-(2-Hydroxypropyl)Acetamide)-Alginic Acid Derivative [Compound 72b] | 0.0 | 0.1 | 0.2 | 0.4 | 1.5 | 3.7 | – | – | – | – | – | – | – |
| Diclofenac-(Tyramine)-Alginic Acid Derivative [Compound 32] | – | – | – | – | – | – | 0.0 | 1.5 | 7.6 | – | 0.0 | 5.7 | 15.2 |
| Diclofenac-(Threonine Ethyl Ester)-Alginic Acid Derivative [Compound 24] | – | – | – | – | – | – | 0.0 | 0.0 | 0.0 | – | 0.0 | 1.4 | 5.4 |
| Diclofenac-(2-Aminoethoxyethanol)-Alginic Acid Derivative [Compound 14b] | 0.1 | 0.2 | 0.5 | – | – | – | – | – | – | – | – | – | – |
| Diclofenac-(Serine Ethyl Ester)-Alginic Acid Derivative [Compound 19] | – | – | – | – | – | – | 0.0 | 0.0 | 0.0 | – | 0.0 | 0.8 | 12.3 |
| Diclofenac-(2-Amino-N-(1-Hydroxypropan-2-Yl)Acetamide)-Alginic Acid Derivative [Compound 80a] | 0.2 | 0.4 | 0.6 | 0.8 | 2.4 | 5.3 | – | – | – | – | – | – | – |
| Diclofenac-(2-Amino-N-(2-Hydroxyethyl)Acetamide)-Alginic Acid Derivative [Compound 53d] | 0.1 | 0.5 | 0.6 | 0.7 | 3.0 | 9.3 | – | – | – | – | – | – | – |
| Diclofenac-((4-(Aminomethyl)Phenyl)Methanol)-Alginic Acid Derivative [Compound 28] | – | – | – | – | – | – | 0.0 | 0.1 | 0.3 | – | 0.1 | 1.2 | 4.0 |
| Diclofenac-(N-(Aminoethyl)-2-Hydroxypropanamide)-Alginic Acid Derivative [Compound 47] | – | – | – | – | – | – | 0.0 | 0.1 | 0.7 | stably released | 0.8 | 6.1 | 10.9 |
| Diclofenac-(2-Amino-N-(2-Hydroxyethyl)Acetamide)-Alginic Acid Derivative [Compound 53c] | 0.5 | 0.9 | 1.0 | 0.9 | 2.5 | 7.4 | – | – | – | – | – | – | – |
| Diclofenac-(2-Aminoethoxyethanol)-Alginic Acid Derivative [Compound 14] | – | – | – | – | – | – | 0.0 | 0.0 | 0.0 | – | 0.0 | 0.0 | 0.0 |
| Diclofenac-(3-Amino-2,2-Difluoropropan-1-Ol)-Alginic Acid Derivative [Compound 36] | – | – | – | – | – | – | 0.0 | 0.5 | 1.0 | – | 1.2 | 8.8 | 12.9 |
| Diclofenac-(2-Aminoethanol)-Alginic Acid Derivative [Compound 5c] | – | – | – | – | – | – | 0.0 | 0.1 | 0.4 | stably released | 0.3 | 2.5 | 5.5 |
| Diclofenac-(2-Amino-N-(3-Hydroxypropyl)Acetamide)-Alginic Acid Derivative [Compound 76a] | 0.1 | 0.2 | 0.4 | 0.5 | 1.3 | 3.5 | – | – | – | – | – | – | – |
| Felbinac-(2-Amino-N-(2-Hydroxyethyl)Acetamide)-Alginic Acid Derivative [Compound 84] | 0.2 | 0.3 | 0.5 | 0.9 | 3.3 | 7.3 | – | – | – | – | – | – | – |
| Diclofenac-(2-Amino-N-(6-Hydroxyhexyl)Acetamide)-Alginic Acid Derivative [Compound 68] | 0.0 | 0.2 | 0.3 | 0.3 | 0.9 | 2.1 | – | – | – | – | – | – | – |
| Diclofenac-(2-Amino-1-(4-(Hydroxymethyl)Piperidin-1-Yl)Ethan-1-One)-Alginic Acid Derivative [Compound 58] | 0.0 | 0.2 | 0.3 | 0.3 | 1.3 | 3.1 | – | – | – | – | – | – | – |
| Diclofenac-(2-Amino-N-(1-Hydroxypropan-2-Yl)Acetamide)-Alginic Acid Derivative [Compound 80b] | 0.2 | 0.3 | 0.7 | 0.7 | 2.3 | 5.6 | – | – | – | – | – | – | – |
| Diclofenac-(2-Amino-1-(4-Hydroxypiperidin-1-Yl)Ethan-1-One)-Alginic Acid Derivative [Compound 63b] | 0.1 | 0.1 | 0.2 | 0.7 | 1.9 | 2.5 | – | – | – | – | – | – | – |
| Diclofenac-(2-Aminoethoxyethanol)-Alginic Acid Derivative [Compound 14a] | 0.1 | 0.2 | 0.4 | 0.6 | 1.9 | 4.2 | – | – | – | – | – | – | – |
| Diclofenac-(2-Amino-N-(3-Hydroxypropyl)Acetamide)-Alginic Acid Derivative [Compound 76b] | 0.3 | 0.5 | 0.6 | 0.4 | 1.4 | 3.6 | – | – | – | – | – | – | – |
